Key:
Slo-1 [1] = biological target: T1, Slo-1 (Homo sapiens, UniProt Q12791); test: Whole-cell voltage-clamp of membrane currents in HEK293 cells expressing Slo-1 alone; format: cell-based; set-up: expressed in transfected cells; host or cells: HEK293; conditions: Slo-1 alone in HEK293 cells, 250 ms depolarizing steps from holding potential -80 mV; for inhibition (block) of membrane currents: CTX 100 nM
Experimental: (§1) FIGS. 6A-B. Slo-1/BKB3 forms BK type II-like charybdotoxin—(CTX) insensitive channels. Slo-1 (A) or Slo-1+BK beta 3 (B) were expressed in HEK293 cells and membrane currents measured using the whole-cell voltage-clamp technique. […]. In contrast, membrane currents in cells co-expressing Slo-1 and BK beta 3 were TEA (5 mM) sensitive but CTX (100 nM) insensitive (FIG. 6B). Similar recordings were made from 4 cells expressing Slo-1 alone and 6 cells co-expressing Slo-1/BKB3. Scale bars represent 1 nA and 200 ms.

Slo-1/BKB3 = biological target: T2, Slo-1/BKB3 (Homo sapiens, UniProt Q12791); test: Whole-cell voltage-clamp of membrane currents in HEK293 cells co-expressing Slo-1 and BK beta 3; format: cell-based; conditions: Slo-1 + BK beta 3 in HEK293 cells, 250 ms depolarizing steps from holding potential -80 mV; for sensitivity (block) of membrane currents: CTX 100 nM
T2 construct: expressed in transfected cells; host or cells: HEK293
Experimental: as §1

Slo-1 [2] = biological target: T1, Slo-1; test: cell-based or functional assay

T1 sequence (Q12791 whole entry): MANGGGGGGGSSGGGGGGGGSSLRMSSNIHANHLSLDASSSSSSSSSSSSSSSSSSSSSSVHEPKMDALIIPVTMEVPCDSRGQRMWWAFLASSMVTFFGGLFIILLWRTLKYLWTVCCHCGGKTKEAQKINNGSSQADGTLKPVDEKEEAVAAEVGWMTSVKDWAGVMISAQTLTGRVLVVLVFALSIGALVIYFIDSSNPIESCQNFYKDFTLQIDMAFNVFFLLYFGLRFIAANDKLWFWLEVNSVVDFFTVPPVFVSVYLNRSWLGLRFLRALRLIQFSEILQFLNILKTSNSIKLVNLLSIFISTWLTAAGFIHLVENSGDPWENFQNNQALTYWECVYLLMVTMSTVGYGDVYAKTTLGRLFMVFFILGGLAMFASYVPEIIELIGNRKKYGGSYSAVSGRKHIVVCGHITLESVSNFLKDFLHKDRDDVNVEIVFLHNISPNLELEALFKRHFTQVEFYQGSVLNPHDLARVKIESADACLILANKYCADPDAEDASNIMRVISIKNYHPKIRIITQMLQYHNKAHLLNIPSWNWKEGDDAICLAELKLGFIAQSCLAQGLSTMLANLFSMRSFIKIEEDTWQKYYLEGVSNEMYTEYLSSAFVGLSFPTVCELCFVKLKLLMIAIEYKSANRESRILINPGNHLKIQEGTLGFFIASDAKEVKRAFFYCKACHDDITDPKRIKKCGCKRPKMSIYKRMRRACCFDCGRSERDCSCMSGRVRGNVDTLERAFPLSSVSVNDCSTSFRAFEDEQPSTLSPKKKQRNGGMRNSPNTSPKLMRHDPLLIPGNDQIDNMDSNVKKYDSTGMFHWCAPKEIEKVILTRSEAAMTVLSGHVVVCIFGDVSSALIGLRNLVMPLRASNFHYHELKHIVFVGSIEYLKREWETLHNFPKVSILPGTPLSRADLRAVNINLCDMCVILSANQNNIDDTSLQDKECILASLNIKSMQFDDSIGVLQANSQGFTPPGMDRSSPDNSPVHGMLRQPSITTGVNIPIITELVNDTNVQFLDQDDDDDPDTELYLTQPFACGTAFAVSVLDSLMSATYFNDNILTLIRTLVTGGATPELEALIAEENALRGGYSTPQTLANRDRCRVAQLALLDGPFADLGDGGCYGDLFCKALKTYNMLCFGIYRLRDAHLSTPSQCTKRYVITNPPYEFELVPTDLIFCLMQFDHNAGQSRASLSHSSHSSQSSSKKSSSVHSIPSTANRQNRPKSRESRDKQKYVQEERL
T2 sequence (Q12791 whole entry): as above
T2 sequence (Q86W47 whole entry W137E partner): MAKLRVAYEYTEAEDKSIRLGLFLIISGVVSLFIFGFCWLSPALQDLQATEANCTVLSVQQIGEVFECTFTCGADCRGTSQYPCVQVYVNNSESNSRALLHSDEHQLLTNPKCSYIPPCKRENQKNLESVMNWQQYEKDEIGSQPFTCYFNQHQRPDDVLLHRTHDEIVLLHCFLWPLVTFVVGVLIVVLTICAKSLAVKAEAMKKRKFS

CC[N+](CC)(CC)CC [TEA]
inhibition of membrane currents (Slo-1 [1]; TEA 5 mM): strongly inhibited | sensitivity of membrane currents (Slo-1/BKB3; TEA 5 mM): sensitive

charybdotoxin [CTX]
inhibition (block) of membrane currents (Slo-1 [1]): strongly inhibited | inhibition (block) of membrane currents (Slo-1 [1]; listed as charybdotoxin): almost completely blocked | sensitivity (block) of membrane currents (Slo-1/BKB3): insensitive | sensitivity (block) of membrane currents (Slo-1/BKB3; listed as charybdotoxin): virtually unblocked

human BK beta 3
shift of the Slo-1 activation curve (V1/2 act), patch clamp, 50 uM free Ca2+ (Slo-1 [2]): 15 mV

From patent US6432645B1, “Beta subunits of Slo family potassium channels” (ICAgen Inc., priority 1999, dated 2002)
